Tests used:
[1] = tested on: GST-XtopBP1 (972-1279)-W1138R
[2] = tested on: GST-XtopBP1 (972-1279) ΔWDDP
[3] = tested on: GST-XtopBP1 (972-1279)
[4] = tested on: His6-XtopBP1-W1138R (full-length)
[5] = tested on: GST-XtopBP1 (1197-1513)
[6] = tested on: His6-XtopBP1 (full-length)
[7] = tested on: GST-XtopBP1 (972-1279) ΔRQLQ

Sequence of Xatr (endogenous Xenopus ATR in egg extracts) (chain, as listed by the source): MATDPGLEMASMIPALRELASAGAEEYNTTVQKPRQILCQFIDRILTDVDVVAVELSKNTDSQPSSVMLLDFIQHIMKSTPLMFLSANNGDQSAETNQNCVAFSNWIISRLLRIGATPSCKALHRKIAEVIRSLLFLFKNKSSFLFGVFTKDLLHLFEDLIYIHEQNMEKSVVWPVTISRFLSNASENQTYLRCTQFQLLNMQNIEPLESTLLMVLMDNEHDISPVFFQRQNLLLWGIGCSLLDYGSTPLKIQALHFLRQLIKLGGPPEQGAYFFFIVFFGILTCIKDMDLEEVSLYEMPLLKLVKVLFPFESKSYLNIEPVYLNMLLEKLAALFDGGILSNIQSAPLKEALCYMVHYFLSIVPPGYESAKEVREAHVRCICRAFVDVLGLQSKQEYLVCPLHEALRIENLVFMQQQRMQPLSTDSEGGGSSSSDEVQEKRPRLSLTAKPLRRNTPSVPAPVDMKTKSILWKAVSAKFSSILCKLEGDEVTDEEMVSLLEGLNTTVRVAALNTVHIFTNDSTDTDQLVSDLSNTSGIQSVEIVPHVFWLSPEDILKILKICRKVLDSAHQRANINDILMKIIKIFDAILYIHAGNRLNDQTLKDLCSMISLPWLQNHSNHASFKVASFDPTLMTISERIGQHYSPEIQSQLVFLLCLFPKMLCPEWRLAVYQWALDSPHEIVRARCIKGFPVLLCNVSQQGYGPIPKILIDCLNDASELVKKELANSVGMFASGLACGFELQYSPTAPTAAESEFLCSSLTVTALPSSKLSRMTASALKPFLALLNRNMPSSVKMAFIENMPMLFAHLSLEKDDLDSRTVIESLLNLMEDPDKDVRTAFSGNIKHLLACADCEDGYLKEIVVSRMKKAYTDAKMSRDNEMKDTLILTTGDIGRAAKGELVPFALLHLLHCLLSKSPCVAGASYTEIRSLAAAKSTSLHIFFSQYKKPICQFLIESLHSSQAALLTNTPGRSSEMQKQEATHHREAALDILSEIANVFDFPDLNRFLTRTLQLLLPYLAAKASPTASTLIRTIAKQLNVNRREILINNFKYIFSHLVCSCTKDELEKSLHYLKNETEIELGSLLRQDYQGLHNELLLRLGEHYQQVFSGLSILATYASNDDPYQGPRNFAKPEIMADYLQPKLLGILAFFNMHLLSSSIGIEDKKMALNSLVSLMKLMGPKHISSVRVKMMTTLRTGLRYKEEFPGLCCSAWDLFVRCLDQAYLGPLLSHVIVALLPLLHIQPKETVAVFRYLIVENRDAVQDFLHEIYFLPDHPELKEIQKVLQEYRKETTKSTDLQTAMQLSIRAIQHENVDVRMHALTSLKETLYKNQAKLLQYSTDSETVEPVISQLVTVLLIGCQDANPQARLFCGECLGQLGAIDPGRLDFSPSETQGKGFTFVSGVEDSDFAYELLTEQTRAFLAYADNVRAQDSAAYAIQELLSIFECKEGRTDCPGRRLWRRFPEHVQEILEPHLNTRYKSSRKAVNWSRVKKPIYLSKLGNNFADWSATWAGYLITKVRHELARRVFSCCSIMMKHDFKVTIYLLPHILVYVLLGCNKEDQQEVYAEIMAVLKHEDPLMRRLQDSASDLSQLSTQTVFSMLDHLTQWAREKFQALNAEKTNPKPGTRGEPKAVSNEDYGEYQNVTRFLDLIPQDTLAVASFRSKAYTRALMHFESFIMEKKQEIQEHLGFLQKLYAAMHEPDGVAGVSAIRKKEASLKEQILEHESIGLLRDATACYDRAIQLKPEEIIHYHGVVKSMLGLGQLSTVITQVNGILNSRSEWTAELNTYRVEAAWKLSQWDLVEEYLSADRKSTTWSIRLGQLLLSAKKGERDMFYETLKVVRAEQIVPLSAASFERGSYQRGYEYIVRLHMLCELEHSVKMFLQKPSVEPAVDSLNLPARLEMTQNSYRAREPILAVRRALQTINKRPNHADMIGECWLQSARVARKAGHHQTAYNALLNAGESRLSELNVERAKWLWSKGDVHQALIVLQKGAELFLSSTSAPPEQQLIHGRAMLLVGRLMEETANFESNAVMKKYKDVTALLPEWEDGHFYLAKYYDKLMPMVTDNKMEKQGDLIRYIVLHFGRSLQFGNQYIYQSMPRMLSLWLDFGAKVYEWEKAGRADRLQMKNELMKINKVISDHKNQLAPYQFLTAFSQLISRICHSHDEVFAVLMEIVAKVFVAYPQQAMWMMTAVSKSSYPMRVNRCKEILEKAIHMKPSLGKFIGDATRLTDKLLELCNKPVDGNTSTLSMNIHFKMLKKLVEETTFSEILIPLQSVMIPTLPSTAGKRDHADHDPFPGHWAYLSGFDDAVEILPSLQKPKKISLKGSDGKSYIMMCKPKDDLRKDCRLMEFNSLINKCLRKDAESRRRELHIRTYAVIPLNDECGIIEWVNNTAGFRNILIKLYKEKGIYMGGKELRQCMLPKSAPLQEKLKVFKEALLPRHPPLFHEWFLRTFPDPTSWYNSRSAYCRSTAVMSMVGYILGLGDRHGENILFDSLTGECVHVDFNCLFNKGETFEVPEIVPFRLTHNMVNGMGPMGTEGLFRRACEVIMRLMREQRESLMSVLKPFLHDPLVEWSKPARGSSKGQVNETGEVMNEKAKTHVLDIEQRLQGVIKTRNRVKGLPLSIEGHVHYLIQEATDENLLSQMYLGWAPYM
Sequence of GST-XtopBP1 (1197-1513) (chain, as listed by the source): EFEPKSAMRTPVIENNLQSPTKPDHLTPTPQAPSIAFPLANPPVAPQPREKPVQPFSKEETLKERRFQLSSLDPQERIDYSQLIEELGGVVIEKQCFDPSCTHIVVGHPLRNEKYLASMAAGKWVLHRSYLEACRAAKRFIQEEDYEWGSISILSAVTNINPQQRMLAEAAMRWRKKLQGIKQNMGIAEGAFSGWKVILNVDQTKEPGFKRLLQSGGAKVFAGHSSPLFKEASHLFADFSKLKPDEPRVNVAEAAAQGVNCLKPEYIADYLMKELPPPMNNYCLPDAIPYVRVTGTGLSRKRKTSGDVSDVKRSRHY
Sequence of GST-XtopBP1 (972-1279)-W1138R (chain, as listed by the source W1138R): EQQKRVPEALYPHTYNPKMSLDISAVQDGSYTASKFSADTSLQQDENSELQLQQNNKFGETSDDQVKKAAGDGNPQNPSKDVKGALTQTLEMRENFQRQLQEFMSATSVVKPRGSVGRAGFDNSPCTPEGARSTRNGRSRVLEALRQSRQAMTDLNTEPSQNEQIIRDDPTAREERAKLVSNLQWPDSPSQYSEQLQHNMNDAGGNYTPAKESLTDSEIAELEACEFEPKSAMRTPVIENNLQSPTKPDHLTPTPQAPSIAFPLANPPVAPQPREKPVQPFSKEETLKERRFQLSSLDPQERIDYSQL
Sequence of His6-XtopBP1-W1138R (full-length) (chain, as listed by the source W1138R): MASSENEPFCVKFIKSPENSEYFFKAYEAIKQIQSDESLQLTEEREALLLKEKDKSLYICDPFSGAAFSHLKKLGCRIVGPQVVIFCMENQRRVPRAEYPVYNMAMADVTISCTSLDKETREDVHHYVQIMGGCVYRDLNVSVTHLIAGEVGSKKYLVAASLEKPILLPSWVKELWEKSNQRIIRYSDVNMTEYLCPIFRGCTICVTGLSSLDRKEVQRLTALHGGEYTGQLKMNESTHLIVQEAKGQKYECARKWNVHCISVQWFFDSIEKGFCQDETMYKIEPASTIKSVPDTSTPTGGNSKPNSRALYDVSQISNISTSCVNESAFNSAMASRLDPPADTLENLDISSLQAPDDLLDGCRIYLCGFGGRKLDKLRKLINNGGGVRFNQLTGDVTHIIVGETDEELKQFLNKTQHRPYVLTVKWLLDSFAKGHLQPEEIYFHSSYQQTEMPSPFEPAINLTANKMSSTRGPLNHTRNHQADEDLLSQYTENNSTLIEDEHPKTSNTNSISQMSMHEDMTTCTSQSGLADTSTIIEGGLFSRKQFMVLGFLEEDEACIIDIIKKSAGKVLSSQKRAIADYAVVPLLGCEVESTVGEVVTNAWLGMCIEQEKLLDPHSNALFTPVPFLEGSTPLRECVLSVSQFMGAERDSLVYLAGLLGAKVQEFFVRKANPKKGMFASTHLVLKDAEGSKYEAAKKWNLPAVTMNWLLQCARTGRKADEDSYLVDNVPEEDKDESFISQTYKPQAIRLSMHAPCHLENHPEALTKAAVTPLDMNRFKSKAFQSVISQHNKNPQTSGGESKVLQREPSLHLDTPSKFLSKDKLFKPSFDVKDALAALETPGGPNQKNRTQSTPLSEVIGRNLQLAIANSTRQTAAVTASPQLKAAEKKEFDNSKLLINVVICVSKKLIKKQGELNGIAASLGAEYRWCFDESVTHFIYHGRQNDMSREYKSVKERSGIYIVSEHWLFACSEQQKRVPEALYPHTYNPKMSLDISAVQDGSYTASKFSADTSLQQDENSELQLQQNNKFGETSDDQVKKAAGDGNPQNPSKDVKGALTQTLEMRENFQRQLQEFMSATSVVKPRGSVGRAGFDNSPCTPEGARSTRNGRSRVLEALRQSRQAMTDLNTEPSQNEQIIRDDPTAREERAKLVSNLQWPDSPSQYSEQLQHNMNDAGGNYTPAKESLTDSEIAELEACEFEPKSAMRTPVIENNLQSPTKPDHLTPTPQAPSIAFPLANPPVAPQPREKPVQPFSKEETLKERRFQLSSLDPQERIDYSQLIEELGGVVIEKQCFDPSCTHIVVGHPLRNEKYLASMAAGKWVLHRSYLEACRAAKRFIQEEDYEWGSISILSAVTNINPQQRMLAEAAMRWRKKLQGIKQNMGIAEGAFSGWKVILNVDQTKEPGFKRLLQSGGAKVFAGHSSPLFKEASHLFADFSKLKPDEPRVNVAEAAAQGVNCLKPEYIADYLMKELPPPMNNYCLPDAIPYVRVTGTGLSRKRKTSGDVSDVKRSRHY
Sequence of GST-XtopBP1 (972-1279) (chain, as listed by the source): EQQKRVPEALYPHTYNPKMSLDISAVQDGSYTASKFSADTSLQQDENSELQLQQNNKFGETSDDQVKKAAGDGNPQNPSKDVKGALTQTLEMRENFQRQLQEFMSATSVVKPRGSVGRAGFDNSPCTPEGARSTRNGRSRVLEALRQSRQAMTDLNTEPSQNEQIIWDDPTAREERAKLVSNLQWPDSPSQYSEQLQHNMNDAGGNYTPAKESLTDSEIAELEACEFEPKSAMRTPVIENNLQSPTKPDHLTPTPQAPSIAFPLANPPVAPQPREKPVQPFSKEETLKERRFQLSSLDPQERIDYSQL

Xatr (endogenous Xenopus ATR in egg extracts)
phosphorylation of 35S-Xchk1 in egg extracts (electrophoretic mobility) [1]: none of the ΔRQLQ, ΔWDDP, or W1138R mutants of the 972-1279 fragment could induce ectopic activation of Xchk1 in these extracts | phosphorylation of 35S-Xchk1 in egg extracts (electrophoretic mobility) [2]: none of the ΔRQLQ, ΔWDDP, or W1138R mutants of the 972-1279 fragment could induce ectopic activation of Xchk1 in these extracts | phosphorylation of 35S-Xchk1 in egg extracts (electrophoretic mobility) [3]: the 972-1279 fragment could elicit a very robust phosphorylation of Xchk1 | checkpoint-dependent phosphorylation of Xchk1 in XtopBP1-depleted egg extracts with aphidicolin [4]: the W1138R mutant could not restore the phosphorylation of Xchk1 | phosphorylation of 35S-Xchk1 in egg extracts (electrophoretic mobility) [5]: the GST-XtopBP1 (1197-1513) fragment, which does not activate Xatr, did not induce any phosphorylation of Xchk1 in egg extracts | checkpoint-dependent phosphorylation of Xchk1 in XtopBP1-depleted egg extracts with aphidicolin [6]: addition of wild-type His6-XtopBP1 to the XtopBP1-depleted extract was able to rescue the phosphorylation of Xchk1 fully | phosphorylation of 35S-Xchk1 in egg extracts (electrophoretic mobility) [7]: none of the ΔRQLQ, ΔWDDP, or W1138R mutants of the 972-1279 fragment could induce ectopic activation of Xchk1 in these extracts
